By Kd is commonly meant the free concentration of one partner at which half of the binding sites on the other are occupied at equilibrium, for simple one-to-one binding.

For one assay, the target named is eDEN1-nanoBiT. The assay can be described thus: split reporter (BiFC, NanoBiT); intramolecular split nanoluciferase of purified eDEN1-nanoBiT, luminescence at 450 nm falls on binding; titration with the ligand; PBS pH 7.4, 0.2 mg/mL ovalbumin, 1 mM DTT, no Brij-35, 70 uM furimazine, 25 C, 96-well plate; single-site fit.
The target in assay [1] is eDEN1-FRET-D10N construct lacking the C163A mutation. Nature of the assay: FRET or BRET; intramolecular FRET of 50 nM sensor (ratio of emission at 475 nm to 525 nm, excitation 440 nm) titrated with free or precursor Nedd8, binding competes with the reporter interaction; PBS pH 7.4, 0.05% Brij-35, 0.2 mg/mL ovalbumin, 1 mM DTT; single-site fit.
Another assay deals with eDEN1-FRET-D10N. The description is as above.
Assay [2] has as its target eDEN1-FRET-D10N with the Wp2 domain replaced by Wp1. The assay is described as above.
A further assay addresses eDEN1-FRET. The assay is described as above.

“free Nedd8 (from UniProt Q15843 1-76) (natural protein)”: the dissociation constant Kd came out at 3.2 µM with eDEN1-nanoBiT; 50.5 µM in assay [1]; 0.324 µM with eDEN1-FRET-D10N; 6.03 µM in assay [2]; 7.61 µM with eDEN1-FRET.
As for “precursor Nedd8 (from UniProt Q15843 1-81) (natural protein)”, the Kd with eDEN1-nanoBiT turned out to be 270 µM. In addition, the fold selectivity for free Nedd8 compared to precursor Nedd8 in the assay with eDEN1-FRET-D10N was found to be 444 fold.

The values above are taken from PMC11443517.
